In paper doi:10.1101/582635:

B1: recombinant S. cerevisiae Asc1p-ybbR (RACK1 ortholog) (natural protein)
chain: MASNEVLVLRGTLEGHNGWVTSLATSAGQPNLLLSASRDKTLISWKLTGDDQKFGVPVRSFKGHSHIVQDCTLTADGAYALSASWDKTLRLWDVATGETYQRFVGHKSDVMSVDIDKKASMIISGSRDKTIKVWTIKGQCLATLLGHNDWVSQVRVVPNEKADDDSVTIISAGNDKMVKAWNLNQFQIEADFIGHNSNINTLTASPDGTLIASAGKDGEIMLWNLAAKKAMYTLSAQDEVFSLAFSPNRYWLAAATATGIKVFSLDPQYLVDDLRPEFAGYSKAAEPHAVSLAWSADGQTLFAGYTDNVIRVWQVMTAN

Key:
[1] = target: human 40S ribosomal subunit lacking RACK1 (ΔRACK1 40S) (human (endogenous in HAP1)) (UniProt P23396); assay: native gel or EMSA
[2] = target: human 40S ribosomal subunit lacking RACK1 (ΔRACK1 40S) (human (endogenous in HAP1)) (UniProt P23396); assay: FRET or BRET

| Molecule | t1/2 (half-life on the 40S subunit) [1] | kobs (fast phase, 75 nM) [2] | kon (fast phase) [2] |
| --- | --- | --- | --- |
| RACK1-ybbR expressed in ΔRACK1 HAP1 cells (native, ribosome-bound) (from UniProt P63244 1-317) (natural protein) | 15 h |  |  |
| B1 |  | 0.2 s⁻¹ | 2e+06 M⁻¹ s⁻¹ |
